Laboratory results as given in patent US9180187B2, “Medicament for treating and/or preventing cancer” (TORAY INDUSTRIES, INC., priority 2010, dated 2015).

Assays:
Format in all cases: cell-based, human
A549 = test: ADCC activity, chromium-51 release; conditions: lung cancer cell line
Experimental: (§1) The above-selected anti-CAPRIN-1 monoclonal antibodies #1 to #11 were evaluated for their cytotoxic activities against cancer cells (ADCC activity). Hybridomas producing the monoclonal antibodies #1 to #11 were each cultured using hybridoma SFM medium (Invitrogen). The thus obtained supernatant was purified using Hitrap ProteinA Sepharose FF (GE HealthCare), replaced with PBS(−), and then filtered through 0.22 μm filter (Millipore). The obtained filtrates were used as antibodies for assay. The human breast cancer cell line MDA-MB-157 (10^6 cells) was collected in a 50-ml centrifuge tube, to which 100 μCi chromium(Cr)-51 was then added, and incubated at 37° C. for 2 hours. Subsequently, the cells were washed 3 times with RPMI1640 medium containing 10% FBS, and then dispensed into each well of a 96-well V-bottom plate at 10^3 cells per well. The thus obtained cells are used as target cell. The above purified antibodies (1 μg each) were added to the cells. Separately, mouse lymphocytes separated from the mouse spleen were further added (2×10^5 cells) and then cultured under conditions of 37° C. and 5% CO2 for 4 hours. After culture, the amount of chromium(Cr)-51 released from cytotoxically impaired tumor cells in a culture supernatant was measured, so that the ADCC activity of each anti-CAPRIN-1 antibody against cancer cells was calculated. […] On the other hand, similar procedures were performed using the monoclonal antibodies (which were prepared in Example 2) reactive with the CAPRIN-1 protein itself, but not reactive with the surface of cancer cells, no cytotoxic activity was observed (see FIG. 1). […] Similarly, the anti-CAPRIN-1 antibodies were examined for ADCC activity against other human cancer cell lines including glioma cell lines (T98G and U373), lung cancer cell lines (A549 and QG56), renal cancer cell lines (Caki-1 and ACHN), a uterine cervix cancer cell line (SW756), a bladder cancer cell line (T24), an esophageal cancer cell line (KYSE180), gastric cancer cell lines (MNK28 and MNK45), a colorectal cancer cell line (SW480), a leukemia cell line (AML5), and a lymphoma cell line (Ramos).

ACHN = test: ADCC activity, chromium-51 release; conditions: renal cancer cell line
Experimental: as §1

AML5 = test: ADCC activity, chromium-51 release; conditions: leukemia cell line
Experimental: as §1

Caki-1 = test: ADCC activity, chromium-51 release; conditions: renal cancer cell line
Experimental: as §1

KYSE180 = test: ADCC activity, chromium-51 release; conditions: esophageal cancer cell line
Experimental: as §1

MNK28 = test: ADCC activity, chromium-51 release; conditions: gastric cancer cell line
Experimental: as §1

MNK45 = test: ADCC activity, chromium-51 release; conditions: gastric cancer cell line
Experimental: as §1

QG56 = test: ADCC activity, chromium-51 release; conditions: lung cancer cell line
Experimental: as §1

Ramos = test: ADCC activity, chromium-51 release; conditions: lymphoma cell line
Experimental: as §1

SW480 = test: ADCC activity, chromium-51 release; conditions: colorectal cancer cell line
Experimental: as §1

SW756 = test: ADCC activity, chromium-51 release; conditions: uterine cervix cancer cell line
Experimental: as §1

T24 = test: ADCC activity, chromium-51 release; conditions: bladder cancer cell line
Experimental: as §1

T98G = test: ADCC activity, chromium-51 release; conditions: glioma cell line
Experimental: as §1

U373 = test: ADCC activity, chromium-51 release; conditions: glioma cell line
Experimental: as §1

CAPRIN-1 protein = test: Flow cytometry: expression of CAPRIN-1 protein on the cell surface of MCF-7 treated with antitumor agents; conditions: 1 μg antibody
Experimental: The cancer cell line MCF-7 was treated with each antitumor agent at a 50% inhibitory concentration which was calculated in (1) above, and the expression behavior of a CAPRIN-1 protein on the cell surface was examined.
The expression behavior of the CAPRIN-1 protein on the surface of the above-treated MCF-7 human breast cancer cell was examined. The cell was prepared to a concentration of 1×10^5 cells/ml, and then cultured on a 6-well plate under conditions of 37° C. and 5% CO2 for 1 day. Next, the cell was treated with antitumor agents at the 50% inhibitory concentration calculated in (1) above, or with PBS(−) as a control, and then cultured under conditions of 37° C. and 5% CO2 for 2 days. […] After washing with PBS, fluorescence intensity was measured using a FACS caliber (Becton, Dickinson and Company). […] As a result, no significant difference in fluorescence intensity was observed regardless of treatment with an antitumor agent. Specifically, the fluorescence intensity obtained in the case of adding the anti-CAPRIN-1 antibody to MCF-7 not treated with any antitumor agent indicated 32% higher enhancement when compared with that in the case of adding the control antibody. […] Here, the percentage of enhancement in fluorescence intensity was represented by the percentage of increase in mean fluorescence intensity (MFI level) in each cell and calculated by the following formula. […]

B1: monoclonal antibody #9: mouse anti-CAPRIN-1 monoclonal antibody; heavy chain variable region SEQ ID NO: 103, light chain variable region SEQ ID NO: 107 (antibody, listed as Mus musculus, V domains shown)
VH: PRASLGVSETLLCTSGFTFTDYYMSWVRQPPGKALEWLGFIRNKANGYTTEYSASVKGRFTISRDNSQSILYLQMNTLRAEDSATYYCARANWAFDYWGQGTTVTVSSK
VL: SGDRVSLSCRASQSISNYLHWYQQKSHESPRLLIKYASQSISGIPSRFSGSGSGTDFTLSINSVETEDFGMYFCQQSNSWPYTFGGGTKLEIKQ
With B1 the “ADCC activity against A549” value (A549) was no less than 24%, the “ADCC activity against ACHN” value (ACHN) was no less than 14% and the “ADCC activity against AML5” value (AML5) was no less than 10%. For the same molecule, the “ADCC activity against Caki-L” value (Caki-1) was no less than 23%, the “ADCC activity against KYSE180” value (KYSE180) was no less than 22% and the “ADCC activity against MNK28” value (MNK28) was no less than 15%. For the same molecule, the “ADCC activity against MNK45” value (MNK45) was no less than 10%, the “ADCC activity against QG56” value (QG56) was no less than 20% and the “ADCC activity against Ramos” value (Ramos) was no less than 10%. For the same molecule, the “ADCC activity against SW480” value (SW480) was no less than 17%, the “ADCC activity against SW756” value (SW756) was no less than 16% and the “ADCC activity against T24” value (T24) was no less than 18%. The “ADCC activity against T98G” value (T98G) was no less than 12%, the “ADCC activity against U373” value (U373) was no less than 16% and the “percentage of enhancement in fluorescence intensity versus control antibody” value (CAPRIN-1 protein; MCF-7 not treated with any antitumor agent) was 32%. For the same molecule, the “percentage of enhancement in fluorescence intensity versus control antibody” value (CAPRIN-1 protein; MCF-7 treated with the antitumor agent at 50% inhibitory concentration for 2 days) was 32%.
